Several values for one entry are separate records, joined by “and”; a condition that tells them apart may be missing. Identical values can stand only once.

The values below come from paper PMC2770954.

Test [1] has as its target HIV-1 reverse transcriptase p51 p51 (Human immunodeficiency virus 1) (UniProt O93215). Particulars: cited from earlier work.
The target in test [2] is HIV-1 reverse transcriptase p66 p66 (Human immunodeficiency virus 1) (UniProt O93215). As to conditions: cited from earlier work.
The target of test [3] is p66^S3C/C38V/C280S labeled with A488 (HIV-1). Nature of the test: FRET or BRET. For orientation: Bioluminescence resonance energy transfer reports proximity on the nanometre scale.
In test [4] the target is p66^S3C/C38V/C280S labeled with QSY9 (HIV-1). Put plainly: FRET or BRET.
Test [5] has as its target HIV-1 reverse transcriptase p66 subunit (wild type) (HIV-1) (UniProt P03366). Nature of the test: pre-steady-state activity assay.
Test [6] has the same target. Nature of the test: intrinsic tryptophan fluorescence kinetics.

The Kd is a measure of binding affinity in units of concentration. “HIV-1 reverse transcriptase p66 p66 (from UniProt O93215)”: the Kd in test [1] was 310 nM; in test [2], 4200 nM.

What is called koff is the rate constant with which the complex falls apart. Read a low koff as slow dissociation. The term kon denotes the rate constant with which the complex forms. A lower kon goes with slow association. In test [3], “p51^S3C/C38V/C280S labeled with QSY9 (natural protein)” returned a kobs (0.5 µM p66-A488, 0.5 µM p51-QSY9) of 4.1e-06 s⁻¹; a kobs (0.5 µM p66-A488, 1.5 µM p51-QSY9) of 4.8e-06 s⁻¹; a kobs (0.5 µM p66-A488, 2.0 µM p51-QSY9) of 5.7e-06 s⁻¹; a kobs (0.5 µM p66-A488, 2.5 µM p51-QSY9) of 7.1e-06 s⁻¹. Further, in test [3], the koff is 2.5e-06 s⁻¹; the kon is 1.6 M⁻¹ s⁻¹ and 1.8 M⁻¹ s⁻¹.

In test [4], “p51^S3C/C38V/C280S labeled with A488 (natural protein)” returned a kobs (0.5 µM p66-QSY9, 0.5 µM p51-A488) of 3.4e-06 s⁻¹ and a koff of 1.9e-06 s⁻¹.

Take “HIV-1 reverse transcriptase p51 subunit (wild type) (from UniProt P03366 600-1039) (natural protein)”: in test [5], the kobs (0.5 µM p66, 0.5 µM p51) turned out to be 5.8e-06 s⁻¹ and the kobs (0.5 µM p66, 2.5 µM p51) is 7.8e-06 s⁻¹. For the same substance, in test [6], the kdiss(1), slower major component of the two-exponential fit came out at 3.6e-06 s⁻¹; the kdiss(2), faster minor component of the two-exponential fit was 7.6e-05 s⁻¹; the kobs (0.5 µM p66, 0.5 µM p51) was determined as 5.4e-06 s⁻¹.
